Data as given in patent US20070249530A1.

Key:
[1] = biological target: Murine APRIL (K104-L241) thioredoxin fusion protein (murine) (UniProt Q9D777); test: competitive displacement ELISA; immobilized APRIL, tracer biotinylated BCMA-Z
[2] = biological target: Murine APRIL (K104-L241) thioredoxin fusion protein (murine) (UniProt Q9D777); test: SPR (BIAcore 3000), APRIL immobilized, 1:1 model
[3] = biological target: Murine APRIL (K104-L241) thioredoxin fusion protein (murine) (UniProt Q9D777); test: competition ELISA; immobilized APRIL, tracer biotinylated BCMA-Z
[4] = biological target: Murine APRIL (K104-L241) thioredoxin fusion protein (murine) (UniProt Q9D777); test: competitive displacement ELISA on immobilized APRIL; unbiotinylated BCMA-Fc varied, tracer biotinylated BCMA-Z
[5] = biological target: Murine APRIL (K104-L241) thioredoxin fusion protein (murine) (UniProt Q9D777); test: competitive displacement ELISA on immobilized APRIL; unlabeled baculovirus BCMA varied, tracer biotinylated BCMA-Z
[6] = biological target: Murine APRIL (K104-L241) thioredoxin fusion protein (murine) (UniProt Q9D777); test: competitive displacement ELISA on immobilized APRIL; unlabeled baculovirus BCMA varied, tracer biotinylated baculovirus BCMA

Sequence of BCMA-Fc (Q02223 5-51): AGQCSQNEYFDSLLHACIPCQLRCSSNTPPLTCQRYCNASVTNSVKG
Sequence of BCMA ECD purified from baculovirus expression (Q02223 4-53): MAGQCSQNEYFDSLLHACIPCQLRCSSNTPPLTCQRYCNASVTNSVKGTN

Substance “BCMA-Fc (from UniProt Q02223 5-51) (Fc fusion)” has an IC50 [1] of 5 nM, a Kd [2] of 0.2 nM and a kon [2] of 3.12e+06 M⁻¹ s⁻¹. For the same substance, the IC50 [3] was 7 to 10 nM and the IC50 (read off the curve) [4] was 7 nM.

For “BCMA ECD purified from baculovirus expression (from UniProt Q02223 4-53) (receptor)”, the IC50 (read off the curve) [5] was 10 nM and the IC50 (read off the curve) [6] was 20 nM.
